Assay results published in patent US10011657B2, “Anti-CS1 antibodies and antibody drug conjugates” (AbbVie Biotherapeutics Inc., priority 2014, dated 2018).

B1: Elotuzumab: monoclonal humanized IgG1 anti-CS1 antibody disclosed as HuLuc63 in U.S. Pat. No. 7,709,610 (antibody, V domains shown)
VH: EVQLVESGGGLVQPGGSLRLSCAASGFDFSRYWMSWVRQAPGKGLEWIGEINPDSSTINYAPSLKDKFIISRDNAKNSLYLQMNSLRAEDTAVYYCARPDGNYWYFDVWGQGTLVTVSS
VL: DIQMTQSPSSLSASVGDRVTITCKASQDVGIAVAWYQQKPGKVPKLLIYWASTRHTGVPDRFSGSGSGTDFTLTISSLQPEDVATYYCQQYSSYPYTFGQGTKVEIKR
B2: Hu31D2: humanized anti-CS1 antibody, VH SEQ ID NO: 16, VL SEQ ID NO: 19 (antibody, V domains shown)
VH: EVQLVESGGGLVQPGGSLRLSCAASGFTFSDYYMAWVRQAPGKGLEWVADINYDGGSTYYLDSLKSRFTISRDNAKNSLYLQMNSLRAEDTAVYYCARDRGYYFDYWGQGTLVTVSS
VL: DVVMTQSPLSLPVTPGEPASISCRSSQSLVHSNGNTYLHWYLQKPGQSPQLLIYKVSNRFSGVPDRFSGSGSGTDFTLKISRVEAEDVGVYFCSQSTHVPPFTFGGGTKVEIK

How the values were obtained:
[1] = system: relapsed or refractory multiple myeloma; settings: elotuzumab added to lenalidomide and dexamethasone vs lenalidomide and dexamethasone control group; cited from earlier work
[2] = biological target: T1, human CS1 (Homo sapiens, UniProt Q9NQ25); assay: Flow-cytometry competition assay with AF488-labeled PDL241 (humanized antibodies, Example 5); type: binding; settings: 293s cells transfected with human CS1; 50 μg/mL test antibody, 5 μg/mL labeled PDL241
T1 construct: expressed in transfected cells; host or cells: 293s cells
T1 sequence (Q9NQ25 23-335): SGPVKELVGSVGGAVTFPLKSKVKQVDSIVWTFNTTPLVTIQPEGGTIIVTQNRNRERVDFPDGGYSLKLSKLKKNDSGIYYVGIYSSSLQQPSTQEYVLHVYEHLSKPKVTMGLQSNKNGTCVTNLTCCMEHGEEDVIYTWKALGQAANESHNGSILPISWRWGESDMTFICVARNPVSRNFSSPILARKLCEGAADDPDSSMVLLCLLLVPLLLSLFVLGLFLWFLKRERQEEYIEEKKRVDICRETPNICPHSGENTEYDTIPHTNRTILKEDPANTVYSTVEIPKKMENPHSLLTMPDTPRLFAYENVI
Method: 293s cells transfected with human CS1 were incubated at various concentrations with an AF488 labeled PDL241 antibody. […] Transfected 293s cells (300,000 cells per data point) were incubated for 30 min (on ice) with a tenfold excess of unlabeled test antibody (50 μg/mL). After the incubation, 5 μg/mL of AF488-labeled PDL241 was added to the cells and incubated on ice for 30 minutes. After this incubation, the cells were washed with PBS+1% FBS and binding of AF488-labeled PDL241 was determine by flow cytometry.

[3] = biological target: T1, human CS1; assay: Flow-cytometry competition assay with AF488-labeled elotuzumab; type: binding; settings: 293s cells transfected with human CS1; 100 μg/mL test antibody, 10 μg/mL labeled elotuzumab
Method: A similar experiment was conducted with AF488-labeled elotuzumab at 10 μg/mL. Transfected 293s cells (300,000 cells per data point) were incubated for 30 min (on ice) with a tenfold excess of unlabeled antibody (100 μg/mL). After the incubation, 10 μg/mL of AF488-labeled elotuzumab was added to the cells and incubated on ice for 30 minutes. After this incubation, the cells were washed with PBS+1% FBS and binding of AF488-labeled elotuzumab determined by flow cytometry.

[4] = biological target: T2, HuCS1 (Homo sapiens, UniProt Q9NQ25); assay: Flow-cytometry competition assay with AF488-labeled Luc34.3.8 on L-363 cells; type: binding; settings: 20 μg/mL test antibody, 2 μg/mL labeled Luc34.3.8
T2 construct: L-363 cells (human multiple myeloma cell line) expressing HuCS1; endogenous in cells; host or cells: L-363 human multiple myeloma cell line
T2 sequence (Q9NQ25 23-335): as above
Method: A similar experiment was conducted with AF488-labeled Luc34.3.8 at 2 μg/mL. L-363 cells (human multiple myeloma cell line) expressing HuCS1 (300,000 cells per data point) was incubated for 30 min (on ice) with a tenfold excess of unlabeled test antibody (20 μg/mL). After the incubation, 2 μg/mL of AF488-labeled Luc34.3.8 was added to the cells and incubated on ice for 30 minutes. After this incubation, the cells were washed with PBS+1% FBS, and binding of AF488-labeled […] determined by flow cytometry.

[5] = biological target: T1, human CS1; assay: Flow-cytometry competition assay with AF488-labeled Hu34C3; type: binding; settings: 293s cells transfected with human CS1; 100 μg/mL test antibody, 10 μg/mL labeled Hu34C3
Method: For the competition assays, transfected 293s cells (300,000 cells per data point) were incubated for 30 min (on ice) with a tenfold excess of unlabeled test antibody (100 μg/mL).

| Molecule | Relative reduction in the risk of disease progression or death [1] | Competition with AF488-labeled PDL241 for binding [2] | Competition with AF488-labeled elotuzumab for binding [3] | Competition with AF488-labeled Luc34.3.8 for binding [4] | Competition with AF488-labeled Hu34C3 for binding [5] |
| --- | --- | --- | --- | --- | --- |
| B1 | 30% |  |  |  |  |
| B2 |  | do not compete with, and bind different epitopes than, PDL241 | do not compete with, and bind different epitopes than, elotuzumab | do not compete with, and bind different epitopes than, Luc34.3.8 | None of the anti-CS1 antibodies tested (including Hu27A12 and Hu31D2) compete with Hu34C3 |
